Interaction score data for one molecule are collected here from paper PMC10397247.

Common to all, as to test: two-hybrid library CCNG1;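 note: natural log of median RNA to DNA barcode read ratio; higher means stronger binding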
Test [1] addresses T1, 4H462-bA.
T1 chain: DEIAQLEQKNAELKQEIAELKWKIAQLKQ

Test [2] has as its target T2, 4H883-bA.
T2 chain: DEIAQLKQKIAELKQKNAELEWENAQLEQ

Test [3] has as its target T3, 4H2697-bA.
T3 chain: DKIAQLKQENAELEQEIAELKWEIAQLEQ

The target of test [4] is T4, 4H370-bA.
T4 chain: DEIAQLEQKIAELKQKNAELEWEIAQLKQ

Test [5] concerns the target T5, 4H607-bA.
T5 chain: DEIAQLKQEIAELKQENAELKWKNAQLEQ

For test [6], the target named is T6, 4H687-bA.
T6 chain: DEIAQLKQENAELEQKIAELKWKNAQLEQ

Test [7] deals with T7, 4H3782-bA.
T7 chain: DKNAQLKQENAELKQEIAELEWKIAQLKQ

In test [8] the target is T8, 4H2667-bA.
T8 chain: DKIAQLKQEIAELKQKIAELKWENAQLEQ

In test [9] the target is T9, 4H72-bA.
T9 chain: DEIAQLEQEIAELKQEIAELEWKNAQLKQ

In test [10] the target is T10, 4H918-bA.
T10 chain: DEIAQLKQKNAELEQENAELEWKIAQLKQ

In test [11] the target is T11, 4H2610-bA.
T11 chain: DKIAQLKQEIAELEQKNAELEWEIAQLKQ

Test [12] has as its target T12, 4H3843-bA.
T12 chain: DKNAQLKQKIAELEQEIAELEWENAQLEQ

In test [13] the target is T13, 4H4001-bA.
T13 chain: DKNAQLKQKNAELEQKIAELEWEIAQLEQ

For test [14], the target named is T14, 4H3189-bA.
T14 chain: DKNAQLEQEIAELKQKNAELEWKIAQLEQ

Test [15] deals with T15, 4H967-bA.
T15 chain: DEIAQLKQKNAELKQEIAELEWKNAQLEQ

Test [16] has as its target T16, 4H953-bA.
T16 chain: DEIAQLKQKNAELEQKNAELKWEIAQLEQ

The target in test [17] is T17, 4H568-bA.
T17 chain: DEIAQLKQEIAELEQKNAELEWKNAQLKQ

Test [18] has as its target T18, 4H3606-bA.
T18 chain: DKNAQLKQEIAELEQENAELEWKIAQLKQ

Test [19] deals with T19, 4H331-bA.
T19 chain: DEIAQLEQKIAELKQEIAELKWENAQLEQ

In test [20] the target is T20, 4H797-bA.
T20 chain: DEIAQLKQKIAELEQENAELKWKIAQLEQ

As for DKIAQLKQEIAELEQKNAELEWEIAQLKQ [4H2610-bA], the interaction score in [1] was 1.76; in test [2], 0.538; in [3], 0.713; in [4], -1.17; in test [5], -1.15; in [6], -0.571. Moreover, the interaction score in test [7] is -0.515; in [8], 0.718; in [9] it was -0.563; in test [10] it was 1.13; in test [11] it was -0.2; in [12] it was 0.444. In addition, the interaction score is 0.0746 in test [13]; -0.366 in test [14]; -1.02 in [15]; 0.322 in test [16]; -0.602 in [17]; 0.322 in test [18]. In addition, the interaction score in [19] was -0.211; in [20] it was -0.486.
